1 substance from paper PMC11797550 can be followed below.

The target in assay [1] is USP1 (ultraspiracle), endogenous in the larval fat body. As to the kind of experiment: Co-IP (anti-IDE antibody) with western blot band quantification. Conditions: fat body of larvae; 10% gel in SDS-PAGE; three replicates; parent: est. 0.49; read off a plot. Background: A western blot detects proteins with antibodies after separation by electrophoresis.
Assay [2] deals with IGF-2-like, endogenous in the larval fat body. The description is as above. The note with it: fat body of larvae; 10% gel in SDS-PAGE; three replicates; parent: est. 0.18; read off a plot.

Consider “IDE, wild type, endogenous in the larval fat body K179R”, for which the response in assay [1] is 0.16 USP1/ACTB. The response (IGF-2-like/ACTB) in assay [2] was determined as 0.46.
